Measured values: patent publication US20050064507A1, “Determining kinase specificity” (priority 2003, published 2005)

Target: T1, PKC-epsilon (Homo sapiens, UniProt Q02156)
T1 construct: purchased Calbiochem
T1 sequence (Q02156 1-737): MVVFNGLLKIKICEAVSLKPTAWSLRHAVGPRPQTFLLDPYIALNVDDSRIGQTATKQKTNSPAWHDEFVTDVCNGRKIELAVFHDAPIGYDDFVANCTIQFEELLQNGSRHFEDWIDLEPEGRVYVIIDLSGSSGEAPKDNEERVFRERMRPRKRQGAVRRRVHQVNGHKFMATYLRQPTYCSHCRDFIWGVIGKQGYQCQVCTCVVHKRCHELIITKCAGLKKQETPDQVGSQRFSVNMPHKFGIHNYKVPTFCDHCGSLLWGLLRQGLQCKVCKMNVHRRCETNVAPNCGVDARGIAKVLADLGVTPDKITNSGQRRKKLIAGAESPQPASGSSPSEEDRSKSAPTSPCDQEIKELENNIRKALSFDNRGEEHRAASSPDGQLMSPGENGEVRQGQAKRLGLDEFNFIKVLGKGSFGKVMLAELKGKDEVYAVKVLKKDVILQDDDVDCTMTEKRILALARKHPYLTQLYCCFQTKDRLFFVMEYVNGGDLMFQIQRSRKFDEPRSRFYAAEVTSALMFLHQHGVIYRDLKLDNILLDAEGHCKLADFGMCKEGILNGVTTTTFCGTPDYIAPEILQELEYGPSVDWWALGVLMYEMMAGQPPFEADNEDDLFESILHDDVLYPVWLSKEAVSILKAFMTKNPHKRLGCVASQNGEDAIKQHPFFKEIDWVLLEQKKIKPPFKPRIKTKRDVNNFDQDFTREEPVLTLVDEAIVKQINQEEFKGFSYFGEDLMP
Assay: In vitro kinase assay: peptide phosphorylation by PKC-epsilon
Assay type: biochemical
Conditions: peptide concentration 1 uM
Method: (§1) Catalytically active preparations of the kinases of interest were either purchased or prepared. Purchased and tested active kinase preparations including the following: PKC-alpha, PKC-delta, PKC-epsilon, PKC-zeta, PKC-mu, PKA, PKG from Calbiochem, ROK alpha/ROCK-II, active from Upstate Biotechnology, and AKT1 from Panvera.
(§2) The conditions of the kinase assay and the amount of active kinase used varied with the kinase and with the accuracy needed. For a typical experiment, 5-20 ng of kinase was used per well and each peptide pool was assayed in duplicate wells. Note that the absolute amount of kinase used was not usually a critical parameter, because the desired information related to specificity of the kinase not its absolute activity, and robustness of the assay depends on comparisons of the same amount of kinase on different peptides. The combination of kinase concentration and assay duration was modified to assure that the stoichiometry of peptide phosphorylation never exceeded 5%. The choice of kinase buffer depended on the kinase being analyzed. For studies of PKC, 100 mM HEPES, 0.05% Triton-X100, 1 mM CaCl2, 20 mM MgCl2, 0.2 mg/ml phosphatidyl serine (Avanti Polar Lipids), PMA 100 ng/ml was typically used. The lipid stock was prepared by transferring 3 mg phosphatidyl serine into iced mixture of 450 μl water plus 50 μl of 10% Triton-X100, sonicating 10 times on ice for 1 sec each.
(§3) The kinase reaction mixture was assembled by sequential addition to a tube held on ice of: 5 μl peptide (100 μM for final concentration of 10 μM), 15 μl of kinase (typically 5 ng/well, in appropriate kinase buffer), 30 μl of ATP (1 uCi/well of ^32P-gamma ATP in a stock of 167 μM cold ATP in the kinase buffer; for final concentration for 100 μM ATP). The mixture was rapidly warmed to desired reaction temperature (30° C. for PKC) and incubated for the desired duration (usually 10 minutes). The kinase assay was terminated by transfer to 4° C. water batch, and rapid addition of an equal volume (50 μl) of stop solution [0.1M ATP+0.1M EDTA in water, pH 8].
(§4) The peptides were then captured from the reaction mixture by transfer to a Reacti-Bind Streptavidin High Binding Capacity Coated Plates (HBC) (Pierce Biotechnology) as follows. The HBC plates were pre-rinsed three times with PBS/Tween PBS/Tween20 0.05% (PBS/Tween). Part of all of the reaction mixture was then transferred wells of a HBC plate pre-filled with 90 μl of phosphate-buffered saline (PBS); typically each aliquots of each phosphorylation reaction were transferred to duplicate HBC plates to assure accuracy by additional replication
(§5) For kinase assays done at the standard peptide concentration of 10 μM, the peptide concentration in the reaction mixture becomes 5 μM after addition of the stop solution; consequently 10 μl of the reaction (50 pMoles of peptide) was transferred to the HBC plate. More generally, the amount of reaction mixture transferred was estimated to be about 50 pMoles of peptide. […] The HBC plates were incubated for 0.5 to 1.5 hr at room temperature for complete binding of biotinylated peptides to plate-bound streptavidin. The HBC plates were then washed extensively with PBS/Tween. Five washes were done routinely and additional wash steps were added if the wash solution removed from the plate had measurable radioactivity as detected using a Geiger counter. This step is essential to obtaining a good the signal to noise ratio because the fraction of radioactivity incorporated in the peptides was a tiny fraction of the total in the reaction mixture. The wells were air-dried. A volume of 40-50 μl of microScint-20 (Packard Instruments) was added to each well. The plates were covered with stick-on film sheet. Radioactive emissions were measured in a TopCount NXT Microplate Scintillation and Luminescence Counter (Packard Instruments). Typically samples were counted for 5 minutes (or more) to improve the signal to noise ratio when counts were low. […]

Row | Substance | phosphorylation by PKC epsilon
1 | 145 (ISDFGLAKKLAVGRHSFSRR) [compound 145] | 26
2 | 146 (QAQRQIKRGAPPRRSSIRNA) [compound 146] | 28
3 | 147 (RDIRQSPKRGFLRSASLGRR) [compound 147] | 26
4 | 154 (KKFFTQGWAGWRKKTSFRKP) [compound 154] | 29
5 | 155 (RWDKRRWRKIPKRPGSVHRT) [compound 155] | 26
6 | 156 (SAQITIPKDGQKRKKSLRKK) [compound 156] | 18
7 | 157 (PSPSNETPKKKKKRFSFKKS) [compound 157] | 12
8 | 158 (VQMTWSYPDEKNKRASVRRR) [compound 158] | 11
9 | 159 (LYARLARAYRRSQRASFKRA) [compound 159] | 25
10 | 160 (PFEVVWYKDKRQLRSSKKYK) [compound 160] | 13
11 | 161 (KYKAFIRIPIPTRRHTFRRQ) [compound 161] | 21
12 | 162 (KKKFSFKKPFKLSGLSFKRN) [compound 162] | 19
13 | 163 (PPRTPGWHQLQPRRVSFRGE) [compound 163] | 14
14 | 164 (TEGKMARVAWKGKRRSKARK) [compound 164] | 12
15 | 165 (TEEKSKKRKKKHRKNSRKHK) [compound 165] | 12
16 | 166 (MAQIERGEARIQRRISIKKA) [compound 166] | 10
17 | 167 (GLPAPGEDKSIYRRGSRRWR) [compound 167] | 6

Target: T2, PKC-zeta (Homo sapiens, UniProt Q05513)
T2 construct: purchased Calbiochem
T2 sequence (Q05513 1-592): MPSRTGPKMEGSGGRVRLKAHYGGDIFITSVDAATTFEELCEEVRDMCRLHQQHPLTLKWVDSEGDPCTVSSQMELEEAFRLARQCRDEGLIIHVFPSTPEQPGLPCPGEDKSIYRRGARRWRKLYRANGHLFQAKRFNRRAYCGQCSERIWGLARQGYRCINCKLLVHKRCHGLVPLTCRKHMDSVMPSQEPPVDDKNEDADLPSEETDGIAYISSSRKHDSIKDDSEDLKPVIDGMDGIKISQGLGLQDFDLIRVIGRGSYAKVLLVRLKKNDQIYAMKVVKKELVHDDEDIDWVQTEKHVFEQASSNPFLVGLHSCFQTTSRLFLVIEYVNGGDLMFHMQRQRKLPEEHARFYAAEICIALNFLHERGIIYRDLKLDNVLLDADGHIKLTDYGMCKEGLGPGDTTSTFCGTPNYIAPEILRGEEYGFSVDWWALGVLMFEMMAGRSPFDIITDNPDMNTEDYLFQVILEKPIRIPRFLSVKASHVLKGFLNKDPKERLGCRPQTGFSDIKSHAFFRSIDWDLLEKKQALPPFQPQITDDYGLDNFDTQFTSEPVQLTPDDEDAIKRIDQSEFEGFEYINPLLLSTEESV
Assay: In vitro kinase assay: peptide phosphorylation by PKC-zeta
Assay type: biochemical
Conditions: peptide concentration 1 uM
Method: as §1, §2, §3, §4, §5

Row | Substance | phosphorylation by PKC zeta
18 | 145 (ISDFGLAKKLAVGRHSFSRR) [compound 145] | 25
19 | 146 (QAQRQIKRGAPPRRSSIRNA) [compound 146] | 32
20 | 147 (RDIRQSPKRGFLRSASLGRR) [compound 147] | 28
21 | 154 (KKFFTQGWAGWRKKTSFRKP) [compound 154] | 27
22 | 155 (RWDKRRWRKIPKRPGSVHRT) [compound 155] | 19
23 | 156 (SAQITIPKDGQKRKKSLRKK) [compound 156] | 15
24 | 157 (PSPSNETPKKKKKRFSFKKS) [compound 157] | 3
25 | 158 (VQMTWSYPDEKNKRASVRRR) [compound 158] | 11
26 | 159 (LYARLARAYRRSQRASFKRA) [compound 159] | 25
27 | 160 (PFEVVWYKDKRQLRSSKKYK) [compound 160] | 15
28 | 161 (KYKAFIRIPIPTRRHTFRRQ) [compound 161] | 15
29 | 162 (KKKFSFKKPFKLSGLSFKRN) [compound 162] | 7
30 | 163 (PPRTPGWHQLQPRRVSFRGE) [compound 163] | 7
31 | 164 (TEGKMARVAWKGKRRSKARK) [compound 164] | 3
32 | 165 (TEEKSKKRKKKHRKNSRKHK) [compound 165] | 1
33 | 166 (MAQIERGEARIQRRISIKKA) [compound 166] | 2
34 | 167 (GLPAPGEDKSIYRRGSRRWR) [compound 167] | 5

Same assay, conditions: peptide concentration 10 uM

Row | Substance | phosphorylation by PKC zeta
35 | 145 (ISDFGLAKKLAVGRHSFSRR) [compound 145] | 61
36 | 146 (QAQRQIKRGAPPRRSSIRNA) [compound 146] | 56
37 | 147 (RDIRQSPKRGFLRSASLGRR) [compound 147] | 34
38 | 154 (KKFFTQGWAGWRKKTSFRKP) [compound 154] | 23
39 | 155 (RWDKRRWRKIPKRPGSVHRT) [compound 155] | 6
40 | 156 (SAQITIPKDGQKRKKSLRKK) [compound 156] | 44
41 | 157 (PSPSNETPKKKKKRFSFKKS) [compound 157] | 6
42 | 158 (VQMTWSYPDEKNKRASVRRR) [compound 158] | 72
43 | 159 (LYARLARAYRRSQRASFKRA) [compound 159] | 41
44 | 160 (PFEVVWYKDKRQLRSSKKYK) [compound 160] | 57
45 | 161 (KYKAFIRIPIPTRRHTFRRQ) [compound 161] | 9
46 | 162 (KKKFSFKKPFKLSGLSFKRN) [compound 162] | 4
47 | 163 (PPRTPGWHQLQPRRVSFRGE) [compound 163] | 26
48 | 164 (TEGKMARVAWKGKRRSKARK) [compound 164] | 2
49 | 165 (TEEKSKKRKKKHRKNSRKHK) [compound 165] | 2
50 | 166 (MAQIERGEARIQRRISIKKA) [compound 166] | 9
51 | 167 (GLPAPGEDKSIYRRGSRRWR) [compound 167] | 37
